Experimental data as given in PMC4484435 (2015).

Target: transforming growth factor beta 1 (UniProt P01137 279-390)
Test: SPR

transforming growth factor beta 1, sequence (P01137 279-390): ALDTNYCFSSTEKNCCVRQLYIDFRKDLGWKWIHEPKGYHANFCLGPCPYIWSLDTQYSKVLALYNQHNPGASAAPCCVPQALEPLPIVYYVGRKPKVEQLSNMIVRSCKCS

B1: Leucine-rich α2-glycoprotein (natural protein)
chain: LKECLILQSAEGSTVSCHGPTEFPSSLPADTVHLSVEFSNLTQLPAAALQGCPGLRELHLSSNRLQALSPELLAPVPRLRALDLTRNALRSLPPGLFSTSANLSTLVLRENQLREVSAQWLQGLDALGHLDLAENQLSSLPSGLLASLGALHTLDLGYNLLESLPEGLLRGPRRLQRLHLEGNRLQRLEDSLLAPQPFLRVLFLNDNQLVGVATGSFQGLQHLDMLDLSNNSLSSTPPGLWAFLGRPTRDMQDGFDISHNPWICDKNLADLCRWLVANRNKMFSQNDTRCAGPEAMKGQRLLDVAELGSL
koff: 0.0589 s⁻¹
